Substitutions are numbered along the chain they refer to. Numbers in names are those of the source. Blank lines part the entries; values can stand above or below the binder they belong to.
Biological target: T1, Human CD3eg linker (human)
T1 construct: Single chain: epsilon and gamma subunits of human CD3 joined by a 29-mer linker, Flag-tag at the C-terminus; also called recombinant human CD3
T1 chain: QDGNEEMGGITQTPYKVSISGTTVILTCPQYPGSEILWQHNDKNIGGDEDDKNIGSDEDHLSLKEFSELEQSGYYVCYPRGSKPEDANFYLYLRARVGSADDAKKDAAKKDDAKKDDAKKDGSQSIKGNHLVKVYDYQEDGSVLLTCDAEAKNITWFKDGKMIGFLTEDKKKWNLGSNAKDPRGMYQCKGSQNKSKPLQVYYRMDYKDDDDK
Experiment: Biacore SPR, vs template H183/L072

- fold change of affinity: 0.7 fold
B6: H183/L072 VH A56T (antibody, name in Kabat numbering, V domains shown)
VH: QVQLVESGGGLVQPGRSLRLSCAASGFTFSNAWMHWVRQAPGKGLEWVAQIKDKGNAYTAYYAPSVKGRFTISRDDSKNSIYLQMNSLKTEDTAVYYCHYVHYASASTVLPAFGVDAWGQGTTVTVSS
VL: DIVMTQSPLSLPVTPGEPASISCQASQELVHMNRNTYLHWYQQKPGQAPRLLIYKVSNRFPGVPDRFSGSGSGTDFTLKISRVEAEDVGVYYCAQGTSVPFTFGQGTKLEIK

- fold change of affinity: 0.7 fold
B11: H183/L072 VH A56V (antibody, name in Kabat numbering, V domains shown)
VH: B6 VH with T59V
VL: B6 VL

- fold change of affinity: 1 fold
B12: H183/L072 VH A56M (antibody, name in Kabat numbering, V domains shown)
VH: B6 VH with T59M
VL: B6 VL

- fold change of affinity: 1.3 fold
B13: H183/L072 VH A56K (antibody, name in Kabat numbering, V domains shown)
VH: B6 VH with T59K
VL: B6 VL

- fold change of affinity: 1 fold
B15: H183/L072 VH A56Q (antibody, name in Kabat numbering, V domains shown)
VH: B6 VH with T59Q
VL: B6 VL

- fold change of affinity: 0.9 fold
B19: H183/L072 VH A56N (antibody, name in Kabat numbering, V domains shown)
VH: B6 VH with T59N
VL: B6 VL

- fold change of affinity: 0.3 fold
B27: H183/L072 VH A56P (antibody, name in Kabat numbering, V domains shown)
VH: B6 VH with T59P
VL: B6 VL

- fold change of affinity: 0.9 fold
B28: H183/L072 VH A56S (antibody, name in Kabat numbering, V domains shown)
VH: B6 VH with T59S
VL: B6 VL

- fold change of affinity: 1.3 fold
B30: H183/L072 VH A56R (antibody, name in Kabat numbering, V domains shown)
VH: B6 VH with T59R
VL: B6 VL

- fold change of affinity: 0.7 fold
B31: H183/L072 VH A56L (antibody, name in Kabat numbering, V domains shown)
VH: B6 VH with T59L
VL: B6 VL

The next lines start with the binder.

B1: H183/L072 VH A54E (antibody, name in Kabat numbering, V domains shown)
VH: B6 VH with A57E, T59A
VL: B6 VL
- fold change of affinity: 1 fold

B2: H183/L072 VH A56E (antibody, name in Kabat numbering, V domains shown)
VH: B6 VH with T59E
VL: B6 VL
- fold change of affinity: 0.6 fold

B3: H183/L072 VH A54Q (antibody, name in Kabat numbering, V domains shown)
VH: B6 VH with A57Q, T59A
VL: B6 VL
- fold change of affinity: 1.1 fold

B4: H183/L072 VH A54F (antibody, name in Kabat numbering, V domains shown)
VH: B6 VH with A57F, T59A
VL: B6 VL
- fold change of affinity: 1.2 fold

B5: H183/L072 VH A54S (antibody, name in Kabat numbering, V domains shown)
VH: B6 VH with A57S, T59A
VL: B6 VL
- fold change of affinity: 1 fold

B7: H183/L072 VH A54M (antibody, name in Kabat numbering, V domains shown)
VH: B6 VH with A57M, T59A
VL: B6 VL
- fold change of affinity: 1 fold

B8: H183/L072 VH A56G (antibody, name in Kabat numbering, V domains shown)
VH: B6 VH with T59G
VL: B6 VL
- fold change of affinity: 0.7 fold

B9: H183/L072 VH A54G (antibody, name in Kabat numbering, V domains shown)
VH: B6 VH with A57G, T59A
VL: B6 VL
- fold change of affinity: 1 fold

B10: H183/L072 VH A54P (antibody, name in Kabat numbering, V domains shown)
VH: B6 VH with A57P, T59A
VL: B6 VL
- fold change of affinity: 0 fold

B14: H183/L072 VH A54W (antibody, name in Kabat numbering, V domains shown)
VH: B6 VH with A57W, T59A
VL: B6 VL
- fold change of affinity: 1.1 fold

B16: H183/L072 VH A54L (antibody, name in Kabat numbering, V domains shown)
VH: B6 VH with A57L, T59A
VL: B6 VL
- fold change of affinity: 1.1 fold

B17: H183/L072 VH A56I (antibody, name in Kabat numbering, V domains shown)
VH: B6 VH with T59I
VL: B6 VL
- fold change of affinity: 0.6 fold

B18: H183/L072 VH A54V (antibody, name in Kabat numbering, V domains shown)
VH: B6 VH with A57V, T59A
VL: B6 VL
- fold change of affinity: 0.7 fold

B20: H183/L072 VH A56F (antibody, name in Kabat numbering, V domains shown)
VH: B6 VH with T59F
VL: B6 VL
- fold change of affinity: 0.6 fold

B21: H183/L072 VH A54N (antibody, name in Kabat numbering, V domains shown)
VH: B6 VH with A57N, T59A
VL: B6 VL
- fold change of affinity: 1.1 fold

B22: H183/L072 VH A54K (antibody, name in Kabat numbering, V domains shown)
VH: B6 VH with A57K, T59A
VL: B6 VL
- fold change of affinity: 1.1 fold

B23: H183/L072 VH A54I (antibody, name in Kabat numbering, V domains shown)
VH: B6 VH with A57I, T59A
VL: B6 VL
- fold change of affinity: 0.7 fold

B24: H183/L072 VH A54Y (antibody, name in Kabat numbering, V domains shown)
VH: B6 VH with A57Y, T59A
VL: B6 VL
- fold change of affinity: 1 fold

B25: H183/L072 VH A54H (antibody, name in Kabat numbering, V domains shown)
VH: B6 VH with A57H, T59A
VL: B6 VL
- fold change of affinity: 1.1 fold

B26: H183/L072 VH A54R (antibody, name in Kabat numbering, V domains shown)
VH: B6 VH with A57R, T59A
VL: B6 VL
- fold change of affinity: 1.1 fold

B29: H183/L072 VH A54T (antibody, name in Kabat numbering, V domains shown)
VH: B6 VH with A57T, T59A
VL: B6 VL
- fold change of affinity: 0.9 fold

B32: H183/L072 VH A56D (antibody, name in Kabat numbering, V domains shown)
VH: B6 VH with T59D
VL: B6 VL
- fold change of affinity: 0.5 fold

B33: H183/L072 VH A56H (antibody, name in Kabat numbering, V domains shown)
VH: B6 VH with T59H
VL: B6 VL
- fold change of affinity: 0.9 fold

Reference: patent US20210388087A1 (Chugai, published 2021)
